To fix the notation:
B1: Guanine nucleotide-binding protein subunit beta (Saccharomyces cerevisiae), P18851 (parent)
chain: MAAHQMDSITYSNNVTQQYIQPQSLQDISAVEDEIQNKIEAARQESKQLHAQINKAKHKIQDASLFQMANKVTSLTKNKINLKPNIVLKGHNNKISDFRWSRDSKRILSASQDGFMLIWDSASGLKQNAIPLDSQWVLSCAISPSSTLVASAGLNNNCTIYRVSKENRVAQNVASIFKGHTCYISDIEFTDNAHILTASGDMTCALWDIPKAKRVREYSDHLGDVLALAIPEEPNSENSSNTFASCGSDGYTYIWDSRSPSAVQSFYVNDSDINALRFFKDGMSIVAGSDNGAINMYDLRSDCSIATFSLFRGYEERTPTPTYMAANMEYNTAQSPQTLKSTSSSYLDNQGVVSLDFSASGRLMYSCYTDIGCVVWDVLKGEIVGKLEGHGGRVTGVRSSPDGLAVCTGSWDSTMKIWSPGYQ
partner: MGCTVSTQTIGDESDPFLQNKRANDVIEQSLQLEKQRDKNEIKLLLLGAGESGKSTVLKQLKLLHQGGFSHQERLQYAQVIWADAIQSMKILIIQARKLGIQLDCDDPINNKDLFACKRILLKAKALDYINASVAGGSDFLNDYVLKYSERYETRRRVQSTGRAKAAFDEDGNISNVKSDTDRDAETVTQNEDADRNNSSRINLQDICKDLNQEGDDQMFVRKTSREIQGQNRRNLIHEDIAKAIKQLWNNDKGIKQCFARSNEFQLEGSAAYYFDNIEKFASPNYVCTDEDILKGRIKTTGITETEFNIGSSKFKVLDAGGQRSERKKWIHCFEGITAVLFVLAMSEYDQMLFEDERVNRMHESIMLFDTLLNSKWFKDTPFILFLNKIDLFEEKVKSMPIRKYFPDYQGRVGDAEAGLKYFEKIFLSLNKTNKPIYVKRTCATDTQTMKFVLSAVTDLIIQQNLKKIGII

The variants in this assay derive from B1. Conditions: with gpa1_yeast GPA1, P08539.
In the case of L132F, the “effect of a mutation on the interaction” value is recorded as “decreasing interaction”.

Values taken from IntAct's records for PubMed 10664449.
